Experimental data: paper PMC4213662

Legend:
[1] = biological target: ribosome-nascent chain complex actively translating a 3'-truncated lepB mRNA encoding the first 155 amino acids (Cy3B-labeled 50S subunit) (E. coli (strain MC4100) | E. coli) (UniProt P00803); test: FRET or BRET; single-molecule FRET in zero-mode waveguides; 100 nM Cy5-SRP in solution, RNCs translating lepB mRNA (155 amino acids) held by the biotinylated mRNA; 750 nM EF-G; Tris-based polymix buffer with 5 mg/ml BSA and 10 µM Blocking oligo; rates estimated from the time at which curves reach 50%
[2] = biological target: ribosome-nascent chain complex actively translating a 3'-truncated lepB mRNA encoding the first 155 amino acids (Cy3B-labeled 50S subunit) (E. coli (strain MC4100) | E. coli) (UniProt P00803); test: FRET or BRET; as a1 but 250 nM EF-G (slower elongation)

Cy5-labeled E. coli signal recognition particle (Ffh(E153C)-Cy5 reconstituted with 4.5S RNA) (from UniProt P0AGD7 1-453) (complex)
half-time of arrival after the initial binding event (2nd–10th arrivals) [1]: 5 s | half-time of first arrival [1]: 280 s | kon [1]: 1.8e+06 M⁻¹ s⁻¹ | half-time of arrival after the initial binding event (2nd–10th arrivals) [2]: 12 s | half-time of first arrival [2]: 350 s
